# Laboratory results published in publication PMC12409439 (The Journal of Biological Chemistry, 2025).
# B1: Saccharomyces cerevisiae Dmc1 (natural protein, S. cerevisiae)
# chain: MSVTGTEIDSDTAKNILSVDELQNYGINASDLQKLKSGGIYTVNTVLSTTRRHLCKIKGLSEVKVEKIKEAAGKIIQVGFIPATVQLDIRQRVYSLSTGSKQLDSILGGGIMTMSITEVFGEFRCGKTQMSHTLCVTTQLPREMGGGEGKVAYIDTEGTFRPERIKQIAEGYELDPESCLANVSYARALNSEHQMELVEQLGEELSSGDYRLIVVDSIMANFRVDYCGRGELSERQQKLNQHLFKLNRLAEEFNVAVFLTNQVQSDPGASALFASADGRKPIGGHVLAHASATRILLRKGRGDERVAKLQDSPDMPEKECVYVIGEKGITDSSD
# notes: Dmc1, S. cerevisiae, expressed from a plasmid encoding 6XHisDmc1; Stood as a helical filament assembled with a 96-mer ssDNA, ADP, Mg2+ and Ca2+; six protomers were modelled; No removal of the His tag is described; The N-terminal end of the tag is read from the printed name 6XHisDmc1; also called Dmc1-ADP; source: E. coli BL21 (DE3) Rosetta2, purified (Talon resin, heparin sepharose)
# Molecular target: the molecule itself
# Assay: cryo-EM structure; Dmc1 (2.5 uM) with 0.125 uM 96-mer ssDNA in HR buffer with 1.5 mM CaCl2 and 5 mM ADP, 30 °C, 5 min, then 8 mM CHAPSO; interdigitated filaments deconvolved into single filaments; filament formation required the ssDNA
protein,measurement,value
B1,binding result,binds
